Experimental data as given in article PMC6306009, “Combined use of cutinase and high-resolution mass-spectrometry to query the molecular architecture of cutin” (Plant Methods, 2018).

How the values were obtained:
F. solani cutinase = biological target: T1, F. solani cutinase (Fusarium vanettenii, UniProt P00590); assay: p-nitrophenol release, absorbance at […] nm; type: biochemical; conditions: 20 mM Tris-HCl pH 8, 10 mM NaCl, 10% acetonitrile (standard assay); temperature not given
T1 construct: gene CUT1; codon-optimised ORF, His-tagged, pET30f, E. coli BL21(DE3), sarkosyl extraction, Ni-NTA purified; 24-30 kDa on SDS-PAGE

[1] = tested on: CCCC(=O)Oc1ccc([N+](=O)[O-])cc1; assay: purified protein; conditions: 20 mM Tris-HCl pH 8, 10 mM NaCl, 10% acetonitrile (standard assay), temperature not given

T1 sequence (P00590 32-230): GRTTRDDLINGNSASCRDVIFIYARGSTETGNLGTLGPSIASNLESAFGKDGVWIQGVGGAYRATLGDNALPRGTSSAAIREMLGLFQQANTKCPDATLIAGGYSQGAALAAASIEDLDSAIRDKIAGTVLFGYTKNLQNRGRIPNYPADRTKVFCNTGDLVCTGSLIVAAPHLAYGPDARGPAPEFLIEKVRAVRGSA

| Molecule | Km (F. solani cutinase) [µM] | Km [1] [µM] | kcat [1] [s⁻¹] |
| --- | --- | --- | --- |
| CCCC(=O)Oc1ccc([N+](=O)[O-])cc1 [p-nitrophenyl butyrate] | 1260 ± 60 |  |  |
| A. brassicicola cutinase (Alternaria brassicicola) |  | 870 ± 50 | 12 ± 0.80 |
